Laboratory results published in patent US20250011468A1 (Novo Nordisk, published 2025).
Residue numbers refer to the chain shown, from its start.

B1: mAb1-4857 (antibody, V domains shown)
VH: EVQLVESGGGLVQPGRSLKLSCAASGFTFDDYAMHWVRQVPGKGLEWVSGISWRGDIIGYVDSVKGRFTISRDNAKNSLYLQLNSLRAEDTALYYCVKSYGSGSFYNAFDSWGQGTLVTVSS
VL: DIQMTQSPSTLSASAGDRVTITCRASQSISSWLAWYQQKPGKAPKFLIYKASRLERGVPSRFSGSGSGTEFSLTISSLQPDDFATYYCLEYSSYIRTFGQGTKVEIK
B2: mAb1-4707 (antibody, V domains shown)
VH: EVQLVESGGGLVQPGRSLRLSCAASGFTFGDYAMHWVRQAPGKGLEWVSGISWVSGSIGYARSVKGRFTISRDNAKNSLYLQMNSLRAEDTALYYCAKGQYDEDAGMDVWGQGTTVTVSS
VL: DIQMTQSPSSLSASVGDRVTITCRASQSIRSYLNWYQQKPGKAPKLLIYAASSLQSGVPSRFSGSGSGTDFTLTISSLQPEDFATYYCQQGYPTWTFGGGTKVEIK
B3: mAb1-4763 (antibody, V domains shown)
VH: B2 VH with V54N, R62K
VL: B2 VL with S28W, R30S, Q55P
B4: mAb1-4071 (antibody, V domains shown)
VH: EVQLVQSGAEVKKPGESLRISCKGSGYSFTPYWIGWVRQMPGKGLEWMGMIDPSDSYTDYGPSFRGHVTISADKSISTAYLQWSSLKASDTAMYYCARVRIREGAFDIWGQGTMVTVSS
VL: DIVMTQSPLSLPVTPGEPASISCRSSQRLLHSTGYNYLNWYLQKPGQSPQLLIYLGSRRASGVPDRFSGSGSGTDFTLKISRVEAEDVGVYYCMQALHIPYTFGQGTKLEIK
B5: mAb1-4624 (antibody, V domains shown)
VH: B4 VH with S28R, P31S, S54T, R102M, E103S
VL: B4 VL with R28S, G34W, R58N, A96V
B6: mAb4-5925 (bispecific, mAb1-4857/mAb1-6723) (bispecific antibody, V domains shown)
VH 1: B1 VH
VL 1: B1 VL
VH 2: EVQLVQSGAEVKKPGESLRISCKGSGYSFTTSWIVWVRQMPGKGLEWMGMIDPSDSFTSYSPSFQGHVTISADKSISTAYLQWSSLKASDTAMYYCARLHYYHSEEFDVWGQGTLVTVSS
VL 2: EIVLTQSPGTLSLSPGERATLSCRASQSVSSSYLAWYQQKPGQAPRLLIYGASSRARGIPDRFSGSGSGTDFTLTISRLEPEDFAVYYCQQFGSSRLFTFGQGTKLEIK
B7: mAb4-7786 (bispecific, mAb1-6081/mAb1-6463) (bispecific antibody, V domains shown)
VH 1: B1 VH with D30H
VL 1: B1 VL with E55D
VH 2: not shown
VL 2: not shown
B8: mAb5-1409 (bispecific, mAb1-8768/mAb1-7503) (bispecific antibody, V domains shown)
VH 1: B1 VH with D30H
VL 1: B1 VL with E55D, V58T
VH 2: B6 VH 2
VL 2: B6 VL 2 with A56T, Q102E
B9: mAb4-7687 (bispecific, mAb1-6037/mAb1-6723) (bispecific antibody, V domains shown)
VH 1: B1 VH
VL 1: B1 VL with S31E, E55D
VH 2: B6 VH 2
VL 2: B6 VL 2
B10: mAb4-7762 (bispecific, mAb1-6584/mAb1-6738) (bispecific antibody, V domains shown)
VH 1: B4 VH with T30R, E103A
VL 1: B4 VL with R28S, G34W, S57K, R58N, A96V
VH 2: EVQLVESGGGLVKPGGSLRLSCAASGFTFSDAWMNWVRQAPGKGLEWVGRIKRKTDGGTTDYAAPVKGRFTISRDDSKNTLYLQMDSLKTEDTAVYYCTTDGIAVAGPLRVYWGQGTLVTVSS
VL 2: not shown
B11: mAb4-7758 (bispecific, mAb1-6584/mAb1-6097) (bispecific antibody, V domains shown)
VH 1: B4 VH with T30R, E103A
VL 1: B4 VL with R28S, G34W, S57K, R58N, A96V
VH 2: B10 VH 2 with D31N, W33H, D86N
VL 2: not shown
B12: mAb4-7789 (bispecific, mAb1-6584/mAb1-6463) (bispecific antibody, V domains shown)
VH 1: B4 VH with T30R, E103A
VL 1: B4 VL with R28S, G34W, S57K, R58N, A96V
VH 2: not shown
VL 2: not shown
B13: mAb4-7756 (bispecific, mAb1-6584/mAb1-6723) (bispecific antibody, V domains shown)
VH 1: B4 VH with T30R, E103A
VL 1: B4 VL with R28S, G34W, S57K, R58N, A96V
VH 2: B6 VH 2
VL 2: B6 VL 2

biological target: T1, human plasma-derived FIXa (Haematologic Technologies Inc) (human, UniProt P00740 47-191; P00740 227-461); experiment: cell-based or functional assay
T1 sequence (P00740 47-191, chain 1 of 2): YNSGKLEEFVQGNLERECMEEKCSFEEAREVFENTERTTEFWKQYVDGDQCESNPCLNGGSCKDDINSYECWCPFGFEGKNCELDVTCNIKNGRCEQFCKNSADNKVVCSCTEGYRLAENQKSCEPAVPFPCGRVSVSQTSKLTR
T1 sequence (P00740 227-461, chain 2 of 2): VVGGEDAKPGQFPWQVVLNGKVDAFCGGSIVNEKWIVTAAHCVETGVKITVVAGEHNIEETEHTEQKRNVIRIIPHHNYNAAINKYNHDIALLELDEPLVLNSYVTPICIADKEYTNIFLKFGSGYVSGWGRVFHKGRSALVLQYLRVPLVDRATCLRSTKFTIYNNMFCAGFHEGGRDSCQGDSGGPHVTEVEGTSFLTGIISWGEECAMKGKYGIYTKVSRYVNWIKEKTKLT

Peak stimulatory activity relative to 224F3	Binder
66.5 fold relative to 224F3	B1
35.9 fold relative to 224F3	B2
20 fold relative to 224F3	B3
10.4 fold relative to 224F3	B4
50.1 fold relative to 224F3	B5

biological target: T1, human plasma-derived FIXa (Haematologic …); experiment: cell-based or functional assay; remark: another data set of the same source

Maximum stimulation (fold), at 533 nM BiAb	Maximum stimulation (fold), at 4060 nM BiAb	Maximum stimulation (fold), at 1115 nM BiAb	Maximum stimulation (fold), at 1650 nM BiAb	Maximum stimulation (fold), at 109 nM BiAb	Maximum stimulation (fold), at 633 nM BiAb	Maximum stimulation (fold), at 253 nM BiAb	Maximum stimulation (fold), at 1520 nM BiAb	Binder
5200 fold								B6
	1270 fold							B7
		11000 fold						B8
			2490 fold					B9
				3190 fold				B10
					2810 fold			B11
						3530 fold		B12
							2600 fold	B13

biological target: T1, human plasma-derived FIXa (Haematologic …); experiment: cell-based or functional assay; remark: another data set of the same source

FXa generation rate at 3.2 nM mAb	FXa generation rate at 6.3 nM mAb	FXa generation rate at 12.5 nM mAb	FXa generation rate at 25 nM mAb	FXa generation rate at 50 nM mAb	FXa generation rate at 100 nM mAb	FXa generation rate at 200 nM mAb	Binder
302 pM/min	491 pM/min	685 pM/min	1000 pM/min	1190 pM/min	1260 pM/min	1300 pM/min	B1
662 pM/min	714 pM/min	697 pM/min	685 pM/min	629 pM/min	581 pM/min	586 pM/min	B2
370 pM/min	390 pM/min	381 pM/min	373 pM/min	369 pM/min	375 pM/min	401 pM/min	B3
43 pM/min	65 pM/min	97 pM/min	131 pM/min	173 pM/min	198 pM/min	208 pM/min	B4
383 pM/min	550 pM/min	752 pM/min	851 pM/min	989 pM/min	1000 pM/min	960 pM/min	B5
